From US7109167
No end group written: not given here.

Columns and labels:
[1] = biological target: endothelial cell receptor for TKPPR on human aortic endothelial cells (HAEC); test: 5% BRU-114 bubbles on HAEC, static, no competitor (same control as the 20th table)
[2] = biological target: endothelial cell receptor for TKPPR on human aortic endothelial cells (HAEC); test: 5% BRU-114 bubbles on HAEC, static, cells pretreated 4 h with 10 ng/mL TNFα
[3] = biological target: endothelial cell receptor for TKPPR on human aortic endothelial cells (HAEC); test: 5% BRU-114 bubbles on HAEC, static, no competitor
[4] = biological target: endothelial cell receptor for TKPPR on human aortic endothelial cells (HAEC); test: 5% BRU-114 bubbles on HAEC, static, cells pretreated 4 h with 1 ng/mL TNFα
[5] = biological target: endothelial cell receptor for TKPPR on human aortic endothelial cells (HAEC); test: microbubbles on HAEC, static, manual count, 5% against 1% BRU-114
[6] = biological target: endothelial cell receptor for TKPPR on human aortic endothelial cells (HAEC); test: microbubbles with 5% BRU-114 on HAEC, static, no competitor
[7] = biological target: endothelial cell receptor for TKPPR on human aortic endothelial cells (HAEC); test: 1% BRU-114 bubbles on HAEC, static, no competitor
[8] = biological target: KB cells (human epidermoid carcinoma cell line), cell surface; test: 5% BRU-114 bubbles on KB cells, static
[9] = biological target: endothelial cell receptor for TKPPR on human aortic endothelial cells (HAEC); test: 5% BRU-114 bubbles on HAEC, static, cells pretreated 4 h with 5 ng/mL TNFα
[10] = biological target: endothelial cell receptor for TKPPR on human aortic endothelial cells (HAEC); test: 5% BRU-114 bubbles on HAEC, static, cells pretreated 4 h with 0 ng/mL TNFα
[11] = biological target: endothelial cell receptor for TKPPR on human aortic endothelial cells (HAEC); test: 1% BRU-114 bubbles on HAEC, static, no competitor, average of duplicates
[12] = biological target: endothelial cell receptor for TKPPR on human aortic endothelial cells (HAEC); test: microbubbles with 5% BRU-114 on HAEC, static inverted culture
[13] = biological target: endothelial cell receptor for TKPPR on human aortic endothelial cells (HAEC); test: microbubbles with 1% BRU-114 on HAEC, static, no competitor
[14] = biological target: endothelial cell receptor for TKPPR on human aortic endothelial cells (HAEC); test: 2% BRU-114 bubbles on HAEC, static, no competitor
[15] = biological target: endothelial cell receptor for TKPPR on human aortic endothelial cells (HAEC); test: 2% BRU-114 bubbles on HAEC, static, no competitor, average of duplicates
[16] = biological target: endothelial cell receptor for TKPPR on human aortic endothelial cells (HAEC); test: 5% BRU-114 bubbles on HAEC, static
[17] = biological target: endothelial cell receptor for TKPPR on human aortic endothelial cells (HAEC); test: 10% BRU-114 bubbles on HAEC, static, no competitor
[18] = biological target: endothelial cell receptor for TKPPR on human aortic endothelial cells (HAEC); test: 5% BRU-114 bubbles on HAEC, static, no competitor (control)
[19] = biological target: receptor for TKPPR on rabbit aortic endothelial cells (RAEC); test: 5% BRU-114 bubbles on RAEC, static, no competitor

B1: DPPE-Glu-GTKPPR (BRU-114) in gas-filled microbubbles (peptide)
peptide: GTKPPR-OH
modifications: not fully specified (N-terminus); also: built into phospholipid gas-filled microbubbles
Work on B1 yielded a Bubbles Bound [1] of 1250 bubbles, a TKPPR-Bubbles bound [2] of 1020 bubbles and a Bubbles Bound-5% [3] of 2780 bubbles. It also gave an HAEC bubbles bound [3] of 1420 bubbles, a TKPPR-Bubbles bound [4] of 1520 bubbles and a % more bubbles bound than with the 1% composition [5] of 31%. For the same binder, the bubbles bound, no competition [6] was 726 bubbles, the Bubbles Bound-1% [7] was 1640 bubbles and the KB cell bubble binding [8] was 56 bubbles. The TKPPR-Bubbles bound [9] was 1360 bubbles, the TKPPR-Bubbles bound [10] was 950 bubbles and the Bubbles Bound [11] was 737 bubbles. The Bubbles Bound [12] was 7050 bubbles, the bubbles bound, no competition [13] was 555 bubbles and the Bubbles Bound % [14] was 100 % of control. The Bubbles Bound [15] was 953 bubbles, the HAEC bubble binding [16] was 1120 bubbles and the Bubbles Bound-10% [17] was 1860 bubbles. It also gave a Bubbles Bound [18] of 1250 bubbles and an RAEC bubbles bound [19] of 751 bubbles.
